The source of these data is patent US5985630A, “Assay for detecting inhibitors of aminoacyl-tRNA synthetases” (Zeneca Limited, priority 1993, dated 1999).

Format in all cases: biochemical, E. coli
The subject of one data set is T1, CC[C@H](C)[C@H](N)C(=O)O.
T1 construct: endogenous in cells; enzyme partially purified in house
Description: 3H-isoleucine-based radiolabelled (standard radiometric) assay. The settings on record: other: 3H-Ile assay; pH 7.4; 37.0 °C. The protocol: (§1) 2. Measurement of ITRS Activity using a ^3 H-Isoleucine-Based Radiolabelled Assay
(§2) The activity of ITRS during fractionation was monitored using conditions based on the method described by Steinmetz and Weil (7), and as described below. Stock reagents used in the method are as follows:
(§3) Prepared as described above. The specific activity of the enzyme used in the present example was approximately 145 nM of product formed/minute/mg, and was about 5%-10% active. The enzyme was diluted as appropriate. It will be appreciated that the enzyme amounts in the assay can be adjusted according to the purity of the enzyme used.
(§4) The assay mixture for a final volume of 200 μl was composed of:
(§5) The standard assay (in 200 μl) was carried out in quadruplicate in Eppendorf microcentrifuge tubes. The ingredients were preincubated for 2-3 minutes at 37° C., and the reaction started by addition of approximately 20 μl of the appropriately diluted enzyme extract as described above.
(§6) The final reaction contained reagents in the following concentrations:
(§7) 0.1% bovine serum albumin […]
(§8) 200 μl of the reaction mixture was pipetted onto 1.5 cm^2 cellulose 3MM filters. […] The dried filters were placed in 20 ml scintillation vials and the radioactivity counted in 15 ml Optiphase.
(§9) The inhibition constants of two compounds were measured and the results compared with the values obtained using the standard ^3 H-isoleucine assay.

Data set [1] deals with T2, Nc1ncnc2c1ncn2[C@@H]1O[C@H](COP(=O)(O)OP(=O)(O)OP(=O)(O)O)[C@@H](O)[C@H]1O.
T2 construct: endogenous in cells; enzyme partially purified in house
The data set is described as above. The following applies: other: 3H-Ile assay; pH 7.4; 37.0 °C. The protocol:
as §1, §2, §3, §4, §5, §6, §7, §8, §9

Data set [2] shares this test system. Description: Colorimetric assay based on valine as substrate (valine-based assay of the invention). The following applies: other: colorimetric assay; pH 7.4; 37.0 °C. The protocol: (§10) 2. Measurement of ITRS activity using a Colorimetric Assay based on using Valine as Substrate
(§11) Incubations were set up in quadruplicate (as above) with a final volume of 200 μl as described below. Stock reagents used in the method were as follows:
as §3, §4
(§12) The standard assay (in 200 μl) was carried out in quadruplicate in Eppendorf microcentrifuge tubes. The ingredients were pre-incubated for 2-3 minutes at 37° C. and the reaction started by addition of 20 μl of appropriately diluted enzyme extract (as described above).
(§13) Thus the final reaction contained reagents in the following concentrations:
(§14) 0.12 mg of mixed tRNA species from E. coli (as described above) HPLC purified from […] available from by Sigma (UK) Ltd 1 unit/μl of inorganic pyrophosphatase and
(§15) an appropriate concentration of ITRS (for example […] of the enzyme as described above).
(§16) The samples were incubated at 37° C. for 20-60 minutes. […] The optical absorbance is then measured at a wavelength of 630 nm using a spectrophotometer.

The test system of the next data set is T3, CC(C)[C@H](N)C(=O)O.
T3 construct: endogenous in cells; enzyme partially purified in house
The data set is described as above. The following applies: other: non-cognate amino acid substrate of ITRS; pH 7.4; 37.0 °C. The protocol:
as §10, §11, §3, §4, §12, §13, §14, §15, §16

As to “E. coli ITRS (isoleucyl-tRNA synthetase) (Escherichia coli K-12)”, the Km in the data set with CC[C@H](C)[C@H](N)C(=O)O amounted to 4.3 µM; in data set [1] it was 47 µM; in data set [2], 48 µM; in the data set on CC(C)[C@H](N)C(=O)O, 500 µM.
